Results taken from the supplement of paper PMC10724198.
± gives the standard deviation of the averaged measurements.

Test system: Saccharomyces cerevisiae
Experiment: protein stability index of tFT-peptide fusion (C-terminal peptide) (PSI (0-1 scale)); higher = more stable (slower turnover)
Conditions: temperature: 30 C
Description: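 MPS profiling in S. cerevisiae of the yeast C-terminome library: the last 12 aa of each annotated ORF are fused to the C-terminus of a sfGFP-mCherry timer, after a GGGS linker. Cells are FACS-sorted into 8 mCherry/sfGFP bins and deep-sequenced. PSI runs from 0 (unstable) to 1 (stable); wild type and das1Δ backgrounds, two technical replicates each.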

[1] = genetic background: das1 deletion

Row | Sequence | protein stability index [1] | protein stability index (genetic background: wild type)
1 | KEGRRSRTRTSS [YJR098C C-terminal 12 aa] | 0.7049 ± 0.0033 | 0.703 ± 0.0041
2 | LLEDIRANYSLN [YLL056C C-terminal 12 aa] | 0.681 ± 0.012 | 0.692 ± 0.028
3 | EFEENPNPTVEN [HSP42 C-terminal 12 aa] | 0.731 ± 0.033 | 0.702 ± 0.054
4 | SHHPHKNGKISF [YKR011C C-terminal 12 aa] | 0.719 ± 0.028 | 0.69647 ± 0.00034
5 | KSAKTAKASQEL [HTA2 C-terminal 12 aa] | 0.705 ± 0.017 | 0.673 ± 0.023
6 | IYANRDKAKKNM [OPI3 C-terminal 12 aa] | 0.681 ± 0.021 | 0.499 ± 0.03
7 | KKPSSYVMVPRP [MRPL8 C-terminal 12 aa] | 0.708 ± 0.011 | 0.6724 ± 0.002
8 | KDKKDKKKKHRD [RPA34 C-terminal 12 aa] | 0.704 ± 0.013 | 0.664 ± 0.035
9 | NIILNWIYPYQR [COX18 C-terminal 12 aa] | 0.703 ± 0.033 | 0.778 ± 0.076
10 | QWMNEMVERWAN [SOH1 C-terminal 12 aa] | 0.707 ± 0.0074 | 0.7 ± 0.0099
11 | SPYLKHLDSRKQ [CTS2 C-terminal 12 aa] | 0.722 ± 0.019 | 0.7 ± 0.045
12 | SSKGFFSKLGCC [YCK2 C-terminal 12 aa] | 0.692 ± 0.0099 | 0.677 ± 0.011
13 | LFMNAVIKTFKK [DGK1 C-terminal 12 aa] | 0.7 ± 0.0083 | 0.6997 ± 0.0014
14 | SSSSTSVNKTLD [VIP1 C-terminal 12 aa] | 0.734 ± 0.04 | 0.707 ± 0.053
15 | EQVRFKNINYKS [AZF1 C-terminal 12 aa] | 0.654 ± 0.0011 | 0.673 ± 0.014
16 | LLRKLSMKRPFS [APL1 C-terminal 12 aa] | 0.683 ± 0.016 | 0.682 ± 0.047
17 | LTLIPILFGKLQ [YNL203C C-terminal 12 aa] | 0.6875 ± 0.0045 | 0.354 ± 0.0097
18 | DPSKLRRVPVIQ [RGL1 C-terminal 12 aa] | 0.69 ± 0.018 | 0.687 ± 0.066
19 | NIYNPMDEEENQ [TFB5 C-terminal 12 aa] | 0.718 ± 0.025 | 0.683 ± 0.032
20 | RVRTLARKHLSK [TRS20 C-terminal 12 aa] | 0.692 ± 0.02 | 0.686 ± 0.018
21 | IYIYTSTLQLCV [YHR028W-A C-terminal 12 aa] | 0.376 ± 0.024 | 0.362 ± 0.011

Row | Sequence | protein stability index [1] | protein stability index (genetic background: wild type)
22 | ERCSLQNPFYSI [YNR066C C-terminal 12 aa] | 0.7315 ± 0.0067 | 0.696 ± 0.0016
23 | EESEKQLYTVLK [CUS1 C-terminal 12 aa] | 0.688 ± 0.0087 | 0.676 ± 0.01
24 | RLSRWFNETENI [MEI4 C-terminal 12 aa] | 0.756 ± 0.043 | 0.727 ± 0.096
25 | RMLMGTTKRGRF [YAL037W C-terminal 12 aa] | 0.704 ± 0.02 | 0.6898 ± 0.0036
26 | IFTSGSKSMKDL [ALG6 C-terminal 12 aa] | 0.73 ± 0.01 | 0.671 ± 0.0092
27 | ALSCLGHSKIFI [YML094C-A C-terminal 12 aa] | 0.7082 ± 0.0041 | 0.706 ± 0.012
28 | EQQNFEKCNEYI [NPL6 C-terminal 12 aa] | 0.691 ± 0.01 | 0.655 ± 0.007
29 | ESGPSIVHHKCF [ACT1 C-terminal 12 aa] | 0.6875 ± 0.003 | 0.6963 ± 0.0026
30 | SKNDSPKKKGWF [MAS2 C-terminal 12 aa] | 0.694 ± 0.027 | 0.702 ± 0.018
31 | QLMYEQDDEEVP [HAP3 C-terminal 12 aa] | 0.718 ± 0.015 | 0.64582 ± 0.00022
32 | AVASFFLRNKRR [FIS1 C-terminal 12 aa] | 0.7073 ± 0.0052 | 0.69 ± 0.027
33 | AGTDKNTHPSSQ [SNT2 C-terminal 12 aa] | 0.692 ± 0.0098 | 0.694 ± 0.019
34 | NASEIYVKRKTG [DDL1 C-terminal 12 aa] | 0.708 ± 0.041 | 0.204 ± 0.03
35 | QTSKGPENLQFS [RAD53 C-terminal 12 aa] | 0.71 ± 0.05 | 0.723 ± 0.018
36 | DDSKILIEHLSE [PET54 C-terminal 12 aa] | 0.697 ± 0.024 | 0.662 ± 0.04
37 | RSFVTRFLHFWC [HIP1 C-terminal 12 aa] | 0.777 ± 0.024 | 0.716 ± 0.046
38 | PHYKPRDGSQVE [SPT4 C-terminal 12 aa] | 0.69 ± 0.011 | 0.65 ± 0.0097
39 | QLKLLNALDSVD [YDR537C C-terminal 12 aa] | 0.696 ± 0.011 | 0.757 ± 0.069
40 | PSENFATKAKLP [YDR187C C-terminal 12 aa] | 0.7507 ± 0.0029 | 0.71 ± 0.025
41 | NTTRYNASLVNQ [DIA3 C-terminal 12 aa] | 0.741 ± 0.031 | 0.712 ± 0.044
